Key:
MS2 coat protein = assay: apparent KD of MS2 coat protein; higher = weaker reporter binding; conditions: Eterna round: R107
Method: (§1)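 RNA-MaP round R107: designed RNA switches with theophylline, tryptophan, arginine or FMN aptamers are transcribed on-chip within common flanks. They are titrated with SNAP-549-labelled MS2 coat protein in RNA-MaP buffer (100 mM Tris pH 7.5, 80 mM KCl, 4 mM MgCl2), without ligand or with the indicated ligand. Median apparent KD per design.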

[1] = system: K4 kissing-loop RNA reporter; assay: apparent KD of K4 kissing-loop reporter; higher = weaker reporter binding; conditions: Eterna round: R107;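 further: bound reporter read as fluorescence of individual clusters on recovered sequencing chips by microscopy, with normalized cluster intensities fitted with a binding model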
Method: as §1, with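 “a labelled K4 kissing-loop RNA reporter” for “SNAP-549-labelled MS2 coat protein”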

[2] = input ligand: theophylline 20 uM
[3] = input ligand: theophylline 2 mM
[4] = input ligand: tryptophan 2.4 mM

Sequence: CCUGAUAACUGAAGGAGCGAGAAACCCUACAUGAGGAUCACCCAUGUAUACACGGGAACUUCUCAGGUAGGUCGCAGUAUGUCGG [Rienat]
- apparent KD of MS2 coat protein (MS2 coat protein; input ligand: arginine 13.2 mM): 71.2 nM
- apparent KD of MS2 coat protein (MS2 coat protein; input ligand: none): 80.2 nM
- apparent KD of MS2 coat protein (MS2 coat protein; [2]): 106 nM
- apparent KD of MS2 coat protein (MS2 coat protein; [3]): 145 nM
- apparent KD of MS2 coat protein (MS2 coat protein; [4]): 93 nM

Sequence: GGAUGGAACUCGGCCGCCACUGGUGAUCCUAAUGUACAUGAGGAUCACCCAUGUACAUGAGAAGAUAGGACCGGGAGAUAAGGGA [Tryptophan B V4 (+4G)]
- apparent KD of MS2 coat protein (MS2 coat protein; input ligand: arginine 13.2 mM): 19.9 nM
- apparent KD of MS2 coat protein (MS2 coat protein; input ligand: none): 19.3 nM
- apparent KD of MS2 coat protein (MS2 coat protein; [2]): 24.3 nM
- apparent KD of MS2 coat protein (MS2 coat protein; [3]): 26.3 nM
- apparent KD of MS2 coat protein (MS2 coat protein; [4]): 20.7 nM

Sequence: GGAUAGGACACGGCCGCCACUACCUAGGAUACUAGAAACAUUUCCUCACAUGAGGAUCACCCAUGUAGGACCGGGUGUCCUAUCG
- apparent KD of MS2 coat protein (MS2 coat protein; input ligand: arginine 13.2 mM): 106 nM
- apparent KD of MS2 coat protein (MS2 coat protein; [2]): 284 nM
- apparent KD of MS2 coat protein (MS2 coat protein; [3]): 351 nM

Sequence: ACGAAACAAGCGGCCGCCACUUCGUGGUGCUAAGGCUUGAUACUACAUGAGGAUCACCCAUGUCGAAGGACCGGGCUUGCGACUG [theeternabot_sameState_MS2_Trp_B_33]
- apparent KD of MS2 coat protein (MS2 coat protein; input ligand: arginine 13.2 mM): 43.4 nM
- apparent KD of MS2 coat protein (MS2 coat protein; [2]): 80 nM
- apparent KD of MS2 coat protein (MS2 coat protein; [3]): 60 nM

Sequence: GUCCAAAGGUCGGCCGCCACUGUAGGAUGUGUUCUUUCACAUGAGGAUCACCCAUGUUGUUAUUAUAGGACCGGGAUUGUAGGAC [39MS split4]
- apparent KD of MS2 coat protein (MS2 coat protein; input ligand: arginine 13.2 mM): 16.4 nM
- apparent KD of MS2 coat protein (MS2 coat protein; [2]): 32.2 nM
- apparent KD of MS2 coat protein (MS2 coat protein; [3]): 21.5 nM

Sequence: AACUGUCAAGGACAACAUUACUGAGGUGAUACCAGCAUCGAAAGAUGCCCUUGGCAGCACCGACUUGCAGUGAUGUUGCAAGUAA [BrourdMod 11 - Jieux - Exclusion - Theophylline A]
- apparent KD of K4 kissing-loop reporter ([1]; input ligand: FMN 200 uM): 271 nM
- apparent KD of K4 kissing-loop reporter ([1]; input ligand: arginine 13.2 mM): 219 nM
- apparent KD of K4 kissing-loop reporter ([1]; input ligand: none): 249 nM
- apparent KD of K4 kissing-loop reporter [1, 2]: 322 nM
- apparent KD of K4 kissing-loop reporter [1, 4]: 247 nM

Sequence: AUUAUAAAGUCGGCCGCCACUGAGAGUAGUGAUGUUACUCUAUUCCUUUAGAUAUUAUAUUUUAUCAGGACCGGGACAUCAGAUU [JR_ExcTryptoB_Sub019]
- apparent KD of K4 kissing-loop reporter ([1]; input ligand: FMN 200 uM): 332 nM
- apparent KD of K4 kissing-loop reporter ([1]; input ligand: arginine 13.2 mM): 341 nM
- apparent KD of K4 kissing-loop reporter ([1]; input ligand: none): 317 nM
- apparent KD of K4 kissing-loop reporter [1, 2]: 290 nM
- apparent KD of K4 kissing-loop reporter [1, 4]: 228 nM

Sequence: AAUAAAAUCACGGCCGCCACUGAUACUAAUAUUAGCAGUGAUGUUGCUAUGUAUAAUUUAUUAAACAGGACCGGGUGAAUAUUUA [JR_ExcTryptoB_Sub015]
- apparent KD of K4 kissing-loop reporter ([1]; input ligand: FMN 200 uM): 159 nM
- apparent KD of K4 kissing-loop reporter ([1]; input ligand: arginine 13.2 mM): 129 nM
- apparent KD of K4 kissing-loop reporter ([1]; input ligand: none): 126 nM
- apparent KD of K4 kissing-loop reporter [1, 2]: 150 nM
- apparent KD of K4 kissing-loop reporter [1, 4]: 114 nM

Sequence: ACGUGCACUAGUGAUGUUGGAAAAUAGGAAGGAGCGGGCGAAAGCCCAGGUAGGUCGCCUAAUAGCACGAGCCACGAAAGUGGCA
- apparent KD of K4 kissing-loop reporter ([1]; input ligand: FMN 200 uM): 376 nM
- apparent KD of K4 kissing-loop reporter ([1]; input ligand: arginine 13.2 mM): 514 nM
- apparent KD of K4 kissing-loop reporter ([1]; input ligand: none): 645 nM
- apparent KD of K4 kissing-loop reporter [1, 2]: 774 nM
- apparent KD of K4 kissing-loop reporter [1, 4]: 522 nM

Sequence: UGACUGGACUGAAGGAGCGCGCGAGACAAAGUCUCGAACUCUUAGUGAUGUUAGGAAAUAACGCAGGUAGGUCGCAGUCUAGUCU
- apparent KD of K4 kissing-loop reporter ([1]; input ligand: FMN 200 uM): 381 nM
- apparent KD of K4 kissing-loop reporter ([1]; input ligand: arginine 13.2 mM): 247 nM
- apparent KD of K4 kissing-loop reporter ([1]; input ligand: none): 332 nM
- apparent KD of K4 kissing-loop reporter [1, 2]: 473 nM
- apparent KD of K4 kissing-loop reporter [1, 4]: 408 nM

Sequence: AGAACUGUCUGAGAUACCAGCCAAGGAGUGAUGUUCCGGCUCGACGAAACGUCGAGCCAUGGCCCUUGGCAGCUCAGACAGUUCA [Omei KL Theo B SS A v2]
- apparent KD of K4 kissing-loop reporter ([1]; input ligand: FMN 200 uM): 249 nM
- apparent KD of K4 kissing-loop reporter ([1]; input ligand: arginine 13.2 mM): 116 nM
- apparent KD of K4 kissing-loop reporter ([1]; input ligand: none): 195 nM
- apparent KD of K4 kissing-loop reporter [1, 2]: 191 nM
- apparent KD of K4 kissing-loop reporter [1, 4]: 102 nM

Sequence: AGUAGAGCAUCAGAUACCAGACAGAACUGAUGGUAAGGAGUGAUGUUCCUUAAUCAGCUUGUCCCUUGGCAGCUGAUAAUAGUCA [#13 K4 Theophylline B Same State]
- apparent KD of K4 kissing-loop reporter ([1]; input ligand: FMN 200 uM): 423 nM
- apparent KD of K4 kissing-loop reporter ([1]; input ligand: arginine 13.2 mM): 437 nM
- apparent KD of K4 kissing-loop reporter ([1]; input ligand: none): 475 nM
- apparent KD of K4 kissing-loop reporter [1, 2]: 359 nM
- apparent KD of K4 kissing-loop reporter [1, 4]: 438 nM

Sequence: CGUAGCAGAUGAAGGAGCGGCUACCUGUAUCAGGCAACUGCCUGAGUGAUGUUCAGGUAUAGCCAGGUAGGUCGCAUCUGCUACG [Arg B Ex t9b]
- apparent KD of K4 kissing-loop reporter ([1]; input ligand: FMN 200 uM): 240 nM
- apparent KD of K4 kissing-loop reporter ([1]; input ligand: arginine 13.2 mM): 206 nM
- apparent KD of K4 kissing-loop reporter ([1]; input ligand: none): 214 nM
- apparent KD of K4 kissing-loop reporter [1, 2]: 211 nM
- apparent KD of K4 kissing-loop reporter [1, 4]: 212 nM

Sequence: UACUAUAGUGAUGUUAUAGAUAAACCAGAUACCAGUGUAACAUAACACCCUUGGCAGCUGAUGAGGGAAGUUAUCAAAAGAUAAC [AstroSTH-A#10designED4.80]
- apparent KD of K4 kissing-loop reporter ([1]; input ligand: FMN 200 uM): 227 nM
- apparent KD of K4 kissing-loop reporter ([1]; input ligand: arginine 13.2 mM): 190 nM
- apparent KD of K4 kissing-loop reporter ([1]; input ligand: none): 142 nM
- apparent KD of K4 kissing-loop reporter [1, 2]: 115 nM
- apparent KD of K4 kissing-loop reporter [1, 4]: 198 nM

Sequence: AAGUGUCAUUAGACACACGCAUCUAUAAACUAGGAUAUGCUGAUAAGCAGAAGGAGUGAUGUUCCUUUCAUGAUGCGAAUUAAAU [#07 K4 FMN A Exclusion]
- apparent KD of K4 kissing-loop reporter ([1]; input ligand: FMN 200 uM): 224 nM
- apparent KD of K4 kissing-loop reporter ([1]; input ligand: arginine 13.2 mM): 123 nM
- apparent KD of K4 kissing-loop reporter ([1]; input ligand: none): 113 nM
- apparent KD of K4 kissing-loop reporter [1, 2]: 135 nM
- apparent KD of K4 kissing-loop reporter [1, 4]: 111 nM

Sequence: UCCUGCAAUCUGCCACGAAAGUGGGUUGAUACCAGAGUCGAAAGACUCCCUUGGCAGCGAGUGAUGUUCGUUGCAGGUAAAUAAA [MatMod 8 - Jieux - Exclusion - Theophylline A]
- apparent KD of K4 kissing-loop reporter ([1]; input ligand: FMN 200 uM): 194 nM
- apparent KD of K4 kissing-loop reporter ([1]; input ligand: arginine 13.2 mM): 163 nM
- apparent KD of K4 kissing-loop reporter ([1]; input ligand: none): 200 nM
- apparent KD of K4 kissing-loop reporter [1, 2]: 180 nM
- apparent KD of K4 kissing-loop reporter [1, 4]: 168 nM

Sequence: CAUACGCAUGGAGGAUAUGAGAUUACUCAUAUCAUUUAAUAUUCUCAGUGAUGUUGAGAUUUAGACUCAGAAGGCCAUGUGUAUG [Ex FMN B 13]
- apparent KD of K4 kissing-loop reporter ([1]; input ligand: FMN 200 uM): 302 nM
- apparent KD of K4 kissing-loop reporter ([1]; input ligand: arginine 13.2 mM): 310 nM
- apparent KD of K4 kissing-loop reporter ([1]; input ligand: none): 350 nM
- apparent KD of K4 kissing-loop reporter [1, 2]: 357 nM
- apparent KD of K4 kissing-loop reporter [1, 4]: 317 nM

Sequence: AACUCUCAGGCAGCCGAGUGAUGUUCGGCCCGAGGACCGGUACGGCCGCCACUCGGGCCUGAGAGAGGUUAUCAAAGAUAGCCAA [#01 K4 Tryptophan A Same State]
- apparent KD of K4 kissing-loop reporter ([1]; input ligand: FMN 200 uM): 194 nM
- apparent KD of K4 kissing-loop reporter ([1]; input ligand: arginine 13.2 mM): 75.2 nM
- apparent KD of K4 kissing-loop reporter ([1]; input ligand: none): 89.8 nM
- apparent KD of K4 kissing-loop reporter [1, 2]: 142 nM
- apparent KD of K4 kissing-loop reporter [1, 4]: 131 nM

Sequence: AGCCGAAAGGCGAGUGCUGUCACUCCGGAAGGAGCGCUCGAAAGAGCAGGUAGGUCGCCGGAGUGAUGUUCCGGUGCAGCACUCA [Omei KL Arginine A Exc B v5]
- apparent KD of K4 kissing-loop reporter ([1]; input ligand: FMN 200 uM): 654 nM
- apparent KD of K4 kissing-loop reporter ([1]; input ligand: arginine 13.2 mM): 390 nM
- apparent KD of K4 kissing-loop reporter ([1]; input ligand: none): 1250 nM
- apparent KD of K4 kissing-loop reporter [1, 2]: 1210 nM
- apparent KD of K4 kissing-loop reporter [1, 4]: 1100 nM

Sequence: ACGUGCCCAGUGAUGUUGGAUAAAUAUGAAGGAGCGUGCGAAAGCACAGGUAGGUCGCAUAAUAGCACGAGCCACGAAAGUGGCA [#SwitchBubble 7 #K4Early #Sliding]
- apparent KD of K4 kissing-loop reporter ([1]; input ligand: FMN 200 uM): 179 nM
- apparent KD of K4 kissing-loop reporter ([1]; input ligand: arginine 13.2 mM): 200 nM
- apparent KD of K4 kissing-loop reporter ([1]; input ligand: none): 181 nM
- apparent KD of K4 kissing-loop reporter [1, 2]: 245 nM
- apparent KD of K4 kissing-loop reporter [1, 4]: 134 nM
